Reference: the supplement of paper PMC10567573
± gives the standard deviation.

Experiment: protein stability index of a GFP-peptide fusion (GPS, HEK-293T) (PSI 1-6); higher = more stable
[1] = treatment: DMSO, c terminus: a fixed tail appended
[2] = treatment: MLN4924 1 uM, 8 h, c terminus: a fixed tail appended
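Note: 24-mer peptide tiles fused after GFP, lentivirally expressed, FACS-sorted into six equal bins by GFP/DsRed ratio, decoded by Illumina sequencing, PSI is the read-weighted mean bin number.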

Sequence	protein stability index [1]	protein stability index [2]	protein stability index (treatment: DMSO, c terminus: native)	protein stability index (treatment: MLN4924 1 uM, 8 h, c terminus: native)
EWIKLDYHRRHNPKTNEDFEFLYN [IQUB]	2.12 ± 0.19	2.24 ± 0.18	–	–
EWLLDAPELPEGHLEDWLEKRAKR [ZMAT5]	4.95 ± 0.52	4.79 ± 0.15	–	–
EWPEYFMAVAFLSAQRSKDPNSQV [DCTD]	2.35 ± 0.26	2.06 ± 0.48	–	–
FARHIKKSEGQKIPKVELQISIYG [GULP1]	2.06 ± 0.41	1.9 ± 0.26	–	–
FDETSSATTISTSEDGSYGTDVTR [KMT2E]	5.34 ± 0.24	5.49 ± 0.17	–	–
FDPLPPSDTIYSYVRPERLSPISH [TCF25]	3.07 ± 0.17	3.14 ± 0.42	–	–
FDVAFIGSIMTVWLSTAPTEPLTH [CARM1]	3.24 ± 0.64	2.88 ± 0.53	–	–
FELDLGKKVLNLLKGAFPARLKKV [PTPN9]	2.84 ± 1.1	2.34 ± 0.59	–	–
FGGNPRFLSLHRAHLGEEAHKCLE [ZNF263]	2.47 ± 0.5	3.14 ± 0.61	–	–
FGQQDWKFLASHFPNRTDQQCQYR [MYBL2]	2.62 ± 0.36	3.08 ± 0.27	–	–
FHALVREIRRKEKEAVLAMEKKSK [RIT1]	2.52 ± 0.6	3.07 ± 0.57	–	–
FHYIPGTDILDLENQRENLEQPFL [PLEKHN1]	2.92 ± 0.58	3.09 ± 0.16	–	–
FIAVTSYQNHKITQLKIENNPFAK [TBX5]	2.12 ± 0.28	2.27 ± 0.53	–	–
FKEVKEKFKGWVSYSTSEQAELSY [DLC1]	3.13 ± 0.27	2.87 ± 0.31	–	–
FKKQIWLLFEYPESSSPARGIAIV [KCNA4]	2.74 ± 0.17	2.42 ± 0.3	–	–
FLDWLRTNPDLIIVCAQSSQSLWN [SMG5]	2.5 ± 0.41	2.36 ± 0.41	–	–
FLFQKPGDKYEHHSYMGMRGFCAF [POMT2]	2.55 ± 0.75	1.99 ± 0.22	–	–
FLHSLVQFLFIYQLPFCGPNVIDN [OR4A15]	2.89 ± 0.32	3.48 ± 0.26	–	–
FLLDVIPVDGARYRWQGRRWEPSG [TBX6]	1.81 ± 0.33	2.4 ± 0.3	–	–
FLTAPLLEFLLALYFLFADAMQLN [CMTM3]	2.94 ± 0.29	3.17 ± 0.3	–	–
FLTFDKQVLRFYAIWDDTDSMYGE [EFHC1]	2.49 ± 0.41	2.46 ± 0.55	–	–
FLTSRTRALLRRFPRMLLVDRLPG [ZSWIM9]	2.57 ± 0.56	2.41 ± 0.39	–	–
FMKYVDSNLCCFIPGKVIDEIYRV [FBXO28]	2.99 ± 0.91	2.65 ± 0.4	–	–

Sequence	protein stability index [1]	protein stability index [2]	protein stability index (treatment: DMSO, c terminus: native)	protein stability index (treatment: MLN4924 1 uM, 8 h, c terminus: native)
FNYELVKSWLNGFRPKDQTSVGMS [SLC25A39]	1.95 ± 0.32	1.97 ± 0.3	–	–
FPRKSELTEHQRIHTGIKPHQCSE [ZNF649]	3.92 ± 0.23	4.24 ± 0.18	–	–
FQARLSGNNLHNASIPEHLAYGSV [POMT2]	2.63 ± 0.21	2.95 ± 0.29	–	–
FQDAIFPDTQENRRMFSSLFQFSN [CCDC3]	2.38 ± 0.43	2.58 ± 0.37	–	–
FRENGRNCKRERDARVKRKLRGPE [TBX6]	3.92 ± 0.3	4.05 ± 0.22	–	–
FRIFIIWAISSWFRRGPAPQDQAG [CLPTM1]	2.23 ± 0.2	1.87 ± 0.28	–	–
FRPGHLLANACLPVRTTNKISKQF [ZSWIM9]	2.78 ± 0.12	2.8 ± 0.19	–	–
FRQFGYQDSPGPREAVSQLRELCR [ZNF24]	3.37 ± 0.17	3.38 ± 0.15	–	–
FRQYCGAACTCHVRNPLSACSIM [RNF208]	–	–	2.09 ± 0.19	2.18 ± 0.2
FRVVDCDQFTQVFLESQGIELNPP [EFHC1]	2.01 ± 0.14	2.27 ± 0.17	–	–
FSDIPSPYLRGTIKMMQAVRQAFQ [GFOD1]	2.38 ± 0.2	2.17 ± 0.17	–	–
FSPANPESSMEDCLAHLGEKVSQE [BCL2L13]	5.2 ± 0.38	5.39 ± 0.16	–	–
FSSLNHIVEKRVLAHLAPLFDNPK [INTS3]	2.27 ± 0.18	2.4 ± 0.44	–	–
FTLNFFRSGIQFGSWGSFQLPGLL [CLCN6]	2.93 ± 0.36	3.02 ± 0.97	–	–
FVEDSFDPNINPTIGASFMTKTVQ [RAB22A]	2.97 ± 0.27	3.34 ± 0.46	–	–
FVKALDDLHKMNHVTPPNVSLGAT [JUNB]	2.43 ± 0.34	2.94 ± 0.49	–	–
FVWYTPPTFMIAVFLPIVVLIFKS [STEAP1]	3.33 ± 1.6	2.81 ± 1.2	–	–
FWLQNSSPSSDRVSAIIWEGNECK [PHTF1]	2.41 ± 0.32	3.07 ± 0.4	–	–
FYGLLFTSENLKLVHIVCHKKTTH [DFFB]	2.73 ± 0.56	2.58 ± 0.31	–	–
FYHYFEDKENIYILLEYCSRRSMA [PLK2]	2.34 ± 0.53	2.21 ± 0.27	–	–
GADNIDVSHPIIYRGAVYADNMEF [FEM1B]	3.11 ± 0.17	3.21 ± 0.48	–	–
GAGFGGGLGAGFGGGFAGGDGLLV [KRT16]	2.58 ± 0.82	2.46 ± 0.92	–	–
GAMLGQTTSEEAVGGATPDQTTSE [HDAC6]	4.91 ± 0.58	5.59 ± 0.073	–	–

Sequence	protein stability index [1]	protein stability index [2]	protein stability index (treatment: DMSO, c terminus: native)	protein stability index (treatment: MLN4924 1 uM, 8 h, c terminus: native)
GAQPCLLLPIVPLSWLVWLLLLLL [ADAMTS4]	–	2.67 ± 1.3	–	–
GCALTTFSVLEGEKNNHRAKDLRA [SOAT1]	3.49 ± 0.52	3.83 ± 0.63	–	–
GCLKMNPDDRLTCSQLLESSYFDS [CDKL4]	3.4 ± 0.45	3.54 ± 0.21	–	–
GDKYEHHSYMGMRGFCAFLGSWLV [POMT2]	2.23 ± 0.57	1.73 ± 0.29	–	–
GDSFSHSSNRIRHLRTHTGERPYK [ZNF263]	4.28 ± 0.14	4.62 ± 0.16	–	–
GDSGERSEGEAMEICSEPVAASPA [ZNF511]	5.47 ± 0.24	5.52 ± 0.26	–	–
GEIETIARFGSGPCKTRDDEPVCG [APMAP]	4.66 ± 0.47	5.13 ± 0.27	–	–
GGADIIVIKYNVNDKFSFHEVKDN [RHOBTB3]	2.72 ± 0.42	2.09 ± 0.55	–	–
GGAGREDPGLWSRLCRLAGASSPA [ZSWIM9]	3.12 ± 0.17	2.92 ± 0.36	–	–
GGARSLWRGNGINVLKIAPESAIK [SLC25A25]	3.29 ± 0.45	3.19 ± 0.47	–	–
GGDYGLVTAGCGFGKDFRKGLLKK [PPTC7]	3.22 ± 0.36	3.6 ± 0.48	–	–
GGGISCVLQDGCVFEKAGVSISVV [CPOX]	2.23 ± 0.63	2.41 ± 0.48	–	–
GGLLTGNEKITMQNLNDRLASYLE [KRT13]	3.19 ± 0.15	3.24 ± 0.13	–	–
GGLQHRVTAKTAPDVLRTKPAFIG [PTPRD]	3.44 ± 0.5	3.07 ± 0.34	–	–
GGQRSTPLIIAARNGHAKVVRLLL [FEM1B]	2.16 ± 0.2	2.23 ± 0.44	–	–
GGTGSGDGNKIFLCHCGKAFSHKS [ZBTB22]	2.27 ± 0.38	2.58 ± 0.41	–	–
GHEKTAKSKTRSLLKRMESLKLKS [DLC1]	3.62 ± 0.17	3.89 ± 0.5	–	–
GHGSHSFIYYENMLLGVPRLRQLK [PKD2L1]	2.17 ± 0.12	2.27 ± 0.034	–	–
GIEPLYIKAEPASPDSPKGSSETE [ESRRA]	5.57 ± 0.21	5.36 ± 0.33	–	–
GIIPYAGIDLAVYETLKNAWLQHY [SLC25A25]	2.6 ± 0.48	2.65 ± 0.67	–	–
GIRLPNGKLKCDICGIICIGPNVL [IKZF1]	2.61 ± 0.48	2.46 ± 1	–	–
GKDAKTTNGHGGEAAEGKSLGSAL [TRIM29]	5.36 ± 0.14	5.27 ± 0.19	–	–
GKTTIILRCLDRDEPSKPTLALEY [DYNC2LI1]	2.25 ± 0.37	2.05 ± 0.29	–	–

Sequence	protein stability index [1]	protein stability index [2]	protein stability index (treatment: DMSO, c terminus: native)	protein stability index (treatment: MLN4924 1 uM, 8 h, c terminus: native)
GLDYLHSKCKIIHTDIKPENILMC [SRPK2]	2.06 ± 0.22	1.9 ± 0.35	–	–
GLFFPPQLNGTANDTAGPELPDPL [NFE2L1]	4.29 ± 0.27	4.45 ± 0.23	–	–
GNQESKLIILASGGPQALVNIMRT [CTNNB1]	2.21 ± 0.57	2.26 ± 0.69	–	–
GPIQLWQFLLELLSDKSCQSFISW [ETS2]	2.62 ± 0.5	2.73 ± 0.6	–	–
GPLLDSLYWTKWYNNQSLGHGSHS [PKD2L1]	2.51 ± 0.16	2.47 ± 0.38	–	–
GPSRSRHRRRSRERGPYRTRKHAH [CLK3]	4.92 ± 0.24	4.8 ± 0.38	–	–
GQLRVFGAGLLSSISELKHALSGH [TPH1]	2.24 ± 0.27	2.13 ± 0.19	–	–
GRFCGQQNPPVIKSSGRFLWIKFF [NETO1]	2.1 ± 0.84	2.39 ± 1.1	–	–
GRLAMDEIFQKPFQTLMFLVRDWS [ATL3]	2.25 ± 0.55	2.09 ± 0.21	–	–
GRSWPSAPDDSKAQAHRIHIDPEI [PDLIM4]	4.22 ± 0.33	4.31 ± 0.07	–	–
GRTLIGFLRSIDQFANLVLHQTVE [LSM1]	3.37 ± 0.64	2.75 ± 0.5	–	–
GSEAAVIPLDLGCTQVTQDGDIPN [FAM189A2]	5.05 ± 0.39	5.26 ± 0.5	–	–
GSLGPVPVLRFDALWQVLARDCFA [TRIM14]	2.42 ± 0.83	2.89 ± 0.43	–	–
GSNRSGSDRRKEKDPKAGDSKSGG [DVL3]	5.63 ± 0.21	5.47 ± 0.23	–	–
GSSSSSSSSINSPDRASGPEGSLS [FAM104A]	5.5 ± 0.22	5.45 ± 0.2	–	–
GSYGVVFKCRNKTSGQVVAVKKFV [CDKL4]	2.02 ± 0.48	2.16 ± 0.46	–	–
GSYNGQIGWFPSNYVLEEVDEAAA [NCK2]	4.65 ± 0.29	4.66 ± 0.36	–	–
GTDGYMPRELASMSLVLHGNNLLV [KLHDC10]	2.72 ± 0.68	2.35 ± 0.56	–	–
GTEQSRGLGHGSTSRGGPWVGTGL [CPOX]	3.27 ± 0.84	3.6 ± 0.26	–	–
GTLSMGVPQIFKYGETCFPKGRFE [ZNF24]	2.83 ± 0.11	2.56 ± 0.27	–	–
